According to patent US20230053129A1:

Target: Shiga toxin 2 (UniProt P09385)
Sequence (P09385 23-319, chain 1 of 2): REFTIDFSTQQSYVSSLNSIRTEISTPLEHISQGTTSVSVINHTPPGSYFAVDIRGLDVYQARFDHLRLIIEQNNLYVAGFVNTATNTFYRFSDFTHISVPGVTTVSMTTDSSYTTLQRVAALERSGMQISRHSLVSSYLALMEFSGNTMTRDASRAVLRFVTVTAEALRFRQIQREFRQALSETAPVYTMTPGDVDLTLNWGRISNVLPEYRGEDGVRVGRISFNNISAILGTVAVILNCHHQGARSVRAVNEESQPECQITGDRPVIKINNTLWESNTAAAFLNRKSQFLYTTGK
Sequence (P09386 20-89, chain 2 of 2, further chain): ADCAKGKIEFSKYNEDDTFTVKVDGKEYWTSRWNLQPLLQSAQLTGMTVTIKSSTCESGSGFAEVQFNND

NAB815 (OA-Dab-Thr-DThr-cy[Dab-Dab-DPhe-Leu-Abu-Dab-Thr-]) (peptide)
Kd: 5 nM
maximum reduction of fluorescence emission: 10%
